The record followed here is article PMC2199121.

The test has as its target C57BL/6 and BALB/c IL-4Rs on transfected TF-1 cells (association rates told for both together). Nature of the test: radioligand binding.

On to “iodinated recombinant murine IL-4 (125I-IL-4) (from UniProt P07750 21-140) (ligand)”, for which the kon is 3.33e+06 to 4.33e+06 M⁻¹ s⁻¹.

A word on the kon: it is a measure of how fast the partners come together.
